Residue numbers refer to the chain shown, from its start. Names may count otherwise.

The chains are these.
B1: Subtilisin E (wild type) (protein)
chain: AQSVPYGISQIKAPALHSQGYTGSNVKVAVIDSGIDSSHPDLNVRGGASFVPSETNPYQDGSSHGTHVAGTIAALNNSIGVLGVSPSASLYAVKVLDSTGSGQYSWIINGIEWAISNNMDVINMSLGGPTGSTALKTVVDKAVSSGIVVAAAAGNEGSSGSTSTVGYPAKYPSTIAVGAVNSSNQRASFSSAGSELDVMAPGVSIQSTLPGGTYGAYNGTSMATPHVAGAAALILSKHPTWTNAQVRDRLESTATYLGNSFYYGKGLINVQAAAQ
B2: Variant 4 (Q103R/V138A/A150V/E156A/Y217H/Q271H) (protein)
chain: B1 chain with Q103R, V138A, A150V, E156A, Y217H, Q271H
B3: Variant 1 (Y6N/I31L/S38T/F50I/Q103R) (protein)
chain: B1 chain with Y6N, I31L, S38T, F50I, Q103R
B4: Variant 22 (E54D/Q103R/T133K/E156A/Y217H) (protein)
chain: B1 chain with E54D, Q103R, T133K, E156A, Y217H

The series has as its target fluorescent labeled casein or bovine serum albumin molecules.
As a reminder, the Km is the concentration of substrate that gives half-maximal velocity. On to B1, for which the Km amounted to 194 µM.

On to B2, for which the Km is 71 µM.

For the protein B3, the Km was 117 µM.

As to B4, the Michaelis constant (Km) was 26 µM.

For the origin of these results see US20030157645.
